“And” between values parts separate entries of the source, which are not always exact repeats. Equal entries are not always repeated.
B1: v3 fHbp with S32V (SEQ ID NO: 17 numbering) (other)
chain: VAADIGTGLADALTAPLDHKDKGLKSLTLEDVIPQNGTLTLSAQGAEKTFKAGDKDNSLNTGKLKNDKISRFDFVQKIEVDGQTITLASGEFQIYKQNHSAVVALQIEKINNPDKTDSLINQRSFLVSGLGGEHTAFNQLPGGKAEYHGKAFSSDDPNGRLHYSIDFTKKQGYGRIEHLKTLEQNVELAAAELKADEKSHAVILGDTRYGSEEKGTYHLALFGDRAQEIAGSATVKIGEKVHEIGIAGKQ
B2: 231 S fusion polypeptide (v2-v3-v1 fHbp, stabilised) (other)
chain: MGPDSDRLQQRRVAADIGAGLADALTAPLDHKDKSLQSLTLDQVVRKNEKLKLAAQGAEKTYGNGDSLNTGKLKNDKVSRFDFIRQIEVDGQLITLESGEFQIYKQDHSAVVALQIEKINNPDKIDSLINQRSFRVSGLGGEHTAFNQLPDGKAEYHGKAFSSDDAGGKLTYTIDFAAKQGHGKIEHLKTPEQNVELAAAELKADEKSHAVILGDTRYGSEEKGTYHLALFGDRAQEIAGSATVKIGEKVHEIGIAGKQGSGGGGVAADIGTGLADALTAPLDHKDKGLKSLTLEDVIPQNGTLTLSAQGAEKTFKAGDKDNSLNTGKLKNDKISRFDFVQKIEVDGQTITLASGEFQIYKQNHSAVVALQIEKINNPDKTDSLINQRSFRVSGLGGEHTAFNQLPGGKAEYHGKAFSSDDPNGRLHYSIDFTKKQGYGRIEHLKTLEQNVELAAAELKADEKSHAVILGDTRYGSEEKGTYHLALFGDRAQEIAGSATVKIGEKVHEIGIAGKQGSGGGGVAADIGAGLADALTAPLDHKDKGLQSLTLDQSVSKNEKLKLAAQGAEKTYGNGDSLNTGKLKNDKVSRFDFIRQIEVDGQLITLESGEFQVYKQSHSALTAFQTEQIQDSEHSGKMVAKRQFRIGDIAGEHTSFDKLPEGGRATYRGTAFGSDDAGGKLTYTIDFAAKQGNGKIEHLKSPELNVDLAAADIKPDGKRHAVISGSVLYNQAEKGSYSLGIFGGKAQEVAGSAEVKTVNGIRHIGLAAKQ

Key:
[1] = target: T1, human factor H (fH), immobilised (human, UniProt P08603 19-1231); experiment: SPR (FIG. 6)
T1 construct: also called human fH
T1 sequence (P08603 19-1231): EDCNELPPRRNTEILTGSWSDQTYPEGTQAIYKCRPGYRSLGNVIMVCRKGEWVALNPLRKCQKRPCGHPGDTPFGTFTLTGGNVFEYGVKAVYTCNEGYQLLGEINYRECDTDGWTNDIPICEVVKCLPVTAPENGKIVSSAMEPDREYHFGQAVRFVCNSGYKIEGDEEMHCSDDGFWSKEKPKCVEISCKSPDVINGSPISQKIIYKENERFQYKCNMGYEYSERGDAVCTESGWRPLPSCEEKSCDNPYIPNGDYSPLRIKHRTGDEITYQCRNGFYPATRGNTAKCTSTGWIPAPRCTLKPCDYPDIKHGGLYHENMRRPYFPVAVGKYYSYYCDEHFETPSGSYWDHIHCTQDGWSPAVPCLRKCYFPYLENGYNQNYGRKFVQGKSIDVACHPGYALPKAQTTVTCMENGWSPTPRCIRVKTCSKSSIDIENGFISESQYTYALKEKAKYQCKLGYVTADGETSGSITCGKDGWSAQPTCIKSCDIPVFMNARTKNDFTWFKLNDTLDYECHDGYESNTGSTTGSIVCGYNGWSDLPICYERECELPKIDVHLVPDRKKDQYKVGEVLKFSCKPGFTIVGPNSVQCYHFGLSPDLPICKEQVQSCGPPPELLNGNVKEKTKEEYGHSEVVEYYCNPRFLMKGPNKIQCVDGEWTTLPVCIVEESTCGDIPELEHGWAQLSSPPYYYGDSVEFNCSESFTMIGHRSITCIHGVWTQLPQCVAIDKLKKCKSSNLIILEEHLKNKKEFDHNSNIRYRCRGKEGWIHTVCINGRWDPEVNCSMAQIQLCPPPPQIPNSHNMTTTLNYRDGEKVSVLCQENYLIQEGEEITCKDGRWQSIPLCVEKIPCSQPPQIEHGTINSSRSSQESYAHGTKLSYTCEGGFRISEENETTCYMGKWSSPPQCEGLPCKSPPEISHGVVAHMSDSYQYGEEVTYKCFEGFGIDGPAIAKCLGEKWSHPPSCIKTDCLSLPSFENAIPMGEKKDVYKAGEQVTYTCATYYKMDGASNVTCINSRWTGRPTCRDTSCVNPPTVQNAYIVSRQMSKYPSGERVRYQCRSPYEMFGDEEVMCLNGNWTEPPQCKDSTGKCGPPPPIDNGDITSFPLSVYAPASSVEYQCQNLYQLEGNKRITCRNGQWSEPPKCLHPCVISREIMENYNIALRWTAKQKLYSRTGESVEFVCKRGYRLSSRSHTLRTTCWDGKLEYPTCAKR

[2] = target: factor H full length (Calbiochem) (UniProt P08603 19-1231)
Sequence of factor H full length (Calbiochem) (P08603 19-1231): as above

[3] = target: T2, factor H comprising only domains 6-7 (UniProt P08603 321-443)
T2 sequence: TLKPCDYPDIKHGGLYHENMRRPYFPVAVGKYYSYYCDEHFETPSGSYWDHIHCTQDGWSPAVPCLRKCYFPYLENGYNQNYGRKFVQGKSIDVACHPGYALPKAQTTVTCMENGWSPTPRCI

Row | Binder | fold reduction of the SPR peak against wild-type v3 [1] [fold] | Kd [2] [nM] | Ration KD wt/x (residual binding) [2] | koff [2] [s⁻¹] | kon [2] [M⁻¹ s⁻¹] | Kd [3] | Ration KD wt/x (residual binding) [3] | koff [3] [s⁻¹] | kon [3] [M⁻¹ s⁻¹]
1 | B1 | ~2 | – | – | – | – | – | – | – | –
2 | B2 | – | 3100 | 0.1 | 0.064 | 21000 | 158 nM and 280 nM | 0.076 | 0.11 | 710000

Source: patent US20170226161A1 (GlaxoSmithKline, published 2017)
